Source: patent US20250228895A1, “COMPOUNDS TO INHIBIT YTHDF2, T HELPER CELLS LACKING EXPRESSION OF YTHDF2, AND METHODS TO TREAT CANCER” (City of Hope, priority 2024, published 2025)

T1: CX3CR1 (Mus musculus, UniProt Q9Z0D9)
T1 construct: BMDMs in the insert were pretreated overnight with 10 μM AZD8797; endogenous in cells; host or cells: primary bone-marrow-derived macrophages (BMDMs) from C57BL/6 mice
T1 sequence (Q9Z0D9 1-354): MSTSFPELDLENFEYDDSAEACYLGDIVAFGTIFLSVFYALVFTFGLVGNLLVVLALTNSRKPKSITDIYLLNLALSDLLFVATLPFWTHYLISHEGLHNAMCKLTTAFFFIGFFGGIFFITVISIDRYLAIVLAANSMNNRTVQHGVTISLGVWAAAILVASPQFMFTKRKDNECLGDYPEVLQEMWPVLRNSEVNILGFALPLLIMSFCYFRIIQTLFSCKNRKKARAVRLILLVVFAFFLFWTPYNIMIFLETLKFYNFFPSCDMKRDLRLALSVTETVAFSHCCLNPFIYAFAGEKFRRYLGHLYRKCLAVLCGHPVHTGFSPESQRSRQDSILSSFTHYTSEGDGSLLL

B1: CpG-Ythdf2 siRNA: Ythdf2 siRNA conjugated to TLR9 agonist CpG1668 ODN by carbon linker; SS SEQ ID NO:1-linker-SEQ ID NO:3, AS SEQ ID NO:2 (nucleic acid)
sense: TCCATGACGTTCCTGATGCT
chain: GCAAACUUGCAGUUUAUGUAU
antisense: AUACAUAAACUGCAAGUUUGCUU
modifications: carbon linker joining SEQ 1 and SEQ 3; modified_base 1..20 OTHER; phosphorothioate bond; modified_base 7 OTHER; Uracil; modified_base 8 OTHER; modified_base 13 OTHER; modified_base 14 OTHER; modified_base 15 OTHER; modified_base 17 OTHER; modified_base 19 OTHER; modified_base 21 OTHER; modified_base 1..3 OTHER; modified_base 2 OTHER; modified_base 6 OTHER; modified_base 11 OTHER; modified_base 18 OTHER; modified_base 22 OTHER; modified_base 23 OTHE

What was measured:
CX3CR1 = molecular target: T1, CX3CR1; assay: Transwell BMDM migration assay with tumor supernatant and CX3CR1 blocking; assay type: cell-based; conditions: BMDMs pretreated overnight with 10 μM
B16-OVA cells = assay: WT vs Ythdf2-KO B16-OVA tumor growth in C57BL/6 mice with AZD8797 or liposomal clodronate; assay type: in vivo, mouse; conditions: 1 mg/kg i.p. once per day
Text: FIGS. 24A-24L show loss of YTHDF2 in tumor cells promotes the recruitment of CX3CR1^+ macrophage via CX3CL1. (A) Volcano plot showing the differentially expressed genes (DEGs) between WT and Ythdf2-KO MC38 tumor. DEGs with an absolute log-transformed fold change of >0.25 and adjusted P value of <0.05 (determined by two-sided Wilcoxon rank-sum test and adjusted using the Bonferroni correction) were defined as significant. […] (C) Heatmap of differential expression genes in leukocyte migration pathway between WT and Ythdf2-KO MC38 tumor cells. […] (E) The absolute number of CX3CR1^+F4/80^+CD11b^+ TAMs from WT and Ythdf2-KO B16-OVA tumors after tumor inoculation (n=3 tumors per group). (F) Schematic representation of a transwell coculture assay involving BMDMs treated with WT or Ythdf2-KO tumor supernatant. (G) Migration cell number of BMDMs induced by WT or Ythdf2-KO B16-OVA tumor cells cultured supernatants, measured with a transwell assay (n=3 samples per group). (H) Migration cell number of BMDMs induced by WT or Ythdf2-KO B16-OVA tumor cell culture supernatant with or without AZD8797, measured with a transwell assay (n=3 samples per group). […] C57BL/6 mice received either an intraperitoneal injection of AZD8797 (1 mg/kg) or an equal amount of PBS once per day for 13 days. Tumor size was measured (n=5 tumors per group). […] Tumor size was measured (n=5 tumors per group). […]

B16-OVA = B16-OVA tumor model, intra-tumoral CpG-Ythdf2 siRNA; assay type: in vivo, mouse
Text: FIGS. 7A-7G: TLR9-targeted YTHDF2 silencing in TAMs suppresses tumor growth and synergizes with anti-PD-L1 blockade. FIG. 7A: Scheme of therapeutic strategies that use CpG-Ythdf2 siRNA alone or in combination with anti-PD-L1. FIG. 7B: B16-OVA or MC38 tumor growth in mice treated with CpG-Ythdf2 siRNA, CpG-scrambled siRNA, CpG only, or PBS (n=5 per group). FIG. 7C: Percentages of tumor-infiltrating IFN-γ-producing CD8^+ T cells in B16-OVA (n=5 per group) or MC38 tumor models (n=5 for PBS group; n=3 for CpG only, CpG-Scrambled siRNA, and CpG-Ythdf2 groups) as described in FIG. 7B. For the MC38 model, tumors in the CpG only, CpG-Scrambled siRNA, and CpG-Ythdf2 groups were pooled for flow cytometry due to small tumor size (sample size after pooling n=3). FIG. 7D: B16-OVA tumor growth in mice treated with CpG-Ythdf2 siRNA, CpG-scrambled siRNA, or in combination with anti-PD-L1 (left, n=5-6 per group) and percentages of tumor-infiltrating IFN-γ-producing CD8^+ T cells (right, n=5 for CpG-scrambled siRNA plus IgG and CpG-scrambled siRNA plus anti-PD-L1 groups, n=3 for CpG-Ythdf2 siRNA plus IgG and CpG-Ythdf2 siRNA plus anti-PD-L1 groups). Tumors from the CpG-Ythdf2 siRNA plus IgG and CpG-Ythdf2 siRNA plus anti-PD-L1 groups were pooled for flow cytometry due to small tumor size (sample size after pooling n=3). FIG. 7E: IFN-γ and granzyme B production by Ly95 T cells when co-cultured with WT or YTHDF2 knock-down macrophages preloaded with NY-ESO157-c165 peptide (n=5). FIGS. 7F-7G: Colon cancer sections were immunohistochemically stained with YTHDF2 plus CD68 or CD8 alone. Dash lines outline the edge of tumor zones. Asterisk marks the stroma tissues. Representative YTHDF2^+CD68^+ high (Patient #11) and YTHDF2^+CD68^+ low (Patient #2) specimens are shown (FIG. 7F). Scale bars=100 μm. Black rows mark YTHDF2^+CD68^+ cells. Correlations between YTHDF2^+CD68^+ cells and CD8^+ T cells in the stroma area are shown (FIG. 7G: n=18 patients). Data are shown as mean SD and were analyzed with one-way ANOVA with the Holm-Šídík post-test (FIGS. 7C-7E) or two-way ANOVA with mixed-effects model (FIGS. 7B, 7D) and adjusted by the Holm-Šídík post-test or Spearman correlation (FIG. 7G). Data in FIGS. 7B-7E are representative of at least two independent experiments (*P<0.05, **P<0.01, ***P<0.001, ****P<0.0001).
Tumor models and treatments. B16-OVA (2×10^5) or MC38 cells (2×10^5) were implanted subcutaneously (s.c.) into the flank of mice. […] For the lung metastatic melanoma model, B16F10 cells (1×10^5) were injected intravenously (i.v.) into the mice. Fourteen days after injection, mice were euthanized for post-mortem analysis. Metastatic nodules in the lung were analyzed macroscopically and counted. […] To co-transfer with macrophages, B16-OVA (2×10^5) or MC38 cells (2×10^5) were mixed with an equal number of bone marrow-derived macrophages (BMDMs) from WT or Ythdf2-cKO mice and implanted s.c. into the flank of WT mice, or Rag1^−/− mice injected i.v. without or with CD3^+ T cells (5×10^6). To knock down Stat1 using siRNA, BMDMs were transfected with siGENOME mouse Stat1 siRNA (Catalog: M-058881-02-0005, Horizon) at 100 nM using lipofectamine 3000 (Invitrogen). 48 h later, cells were collected and mixed with an equal number of B16-OVA cells (2×10^5) and implanted s.c. into the flank of WT mice.
For the uptake studies, CpG-Ythdf2 siRNA (SS) was labeled using […] Cy3. In vivo delivery of CpG-Ythdf2 siRNA for treatment began when the largest diameter of the tumors reached 5-8 mm-typically 5-7 days after inoculation. Mice were injected intratumorally every other day with 5 mg/kg of CpG-Ythdf2 siRNA, CpG-scrambled siRNAs, CpG alone or PBS in a volume of 20 μL. Tumor growth was monitored every other day.

MC38 = MC38 tumor model, intra-tumoral CpG-Ythdf2 siRNA; assay type: in vivo, mouse
Text: FIGS. 7A-7G: TLR9-targeted YTHDF2 silencing in TAMs suppresses tumor growth and synergizes with anti-PD-L1 blockade. FIG. 7A: Scheme of therapeutic strategies that use CpG-Ythdf2 siRNA alone or in combination with anti-PD-L1. FIG. 7B: B16-OVA or MC38 tumor growth in mice treated with CpG-Ythdf2 siRNA, CpG-scrambled siRNA, CpG only, or PBS (n=5 per group). FIG. 7C: Percentages of tumor-infiltrating IFN-γ-producing CD8^+ T cells in B16-OVA (n=5 per group) or MC38 tumor models (n=5 for PBS group; n=3 for CpG only, CpG-Scrambled siRNA, and CpG-Ythdf2 groups) as described in FIG. 7B. For the MC38 model, tumors in the CpG only, CpG-Scrambled siRNA, and CpG-Ythdf2 groups were pooled for flow cytometry due to small tumor size (sample size after pooling n=3). […] Data are shown as mean SD and were analyzed with one-way ANOVA with the Holm-Šídík post-test (FIGS. 7C-7E) or two-way ANOVA with mixed-effects model (FIGS. 7B, 7D) and adjusted by the Holm-Šídík post-test or Spearman correlation (FIG. 7G). […]
(§1) Tumor models and treatments. […] Metastatic nodules in the lung were analyzed macroscopically and counted. […]
For the uptake studies, CpG-Ythdf2 siRNA (SS) was labeled using fluorescein Cy3. […] Tumor growth was monitored every other day.

B16F10 = B16F10 lung metastasis model, intravenous CpG-Ythdf2 siRNA; assay type: in vivo, mouse
Protocol: FIGS. 15A-15P: TLR9 expression and CpG-Ythdf2 siRNA design as well as its uptake by macrophages associated with anti-tumor effect in vivo. FIG. 15A: Violin plot showing the Tlr9 expression across 15 cell clusters from scRNA-seq data in this study. FIG. 15B: Sequence of the CpG-linked mouse Ythdf2 siRNA conjugate (CpG-Ythdf2 siRNA). FIGS. 15C-15D: BMDMs were incubated with different doses of Cy3-labeled CpG-Ythdf2 siRNA (FIG. 15C) or with 100 nM Cy3-labeled CpG-Ythdf2 siRNA for the indicated times (FIG. 15D). CpG-Ythdf2 siRNA uptake was examined by flow cytometry. Data shown are representative histograms. FIG. 15E: Cy3-labeled CpG-Ythdf2 siRNA or CpG only was injected into B16-OVA tumors of C57BL/6 mice. […] Data shown are representative histograms. FIG. 15F: mRNA levels of Ythdf2 in macrophages sorted from tumor tissues of B16-OVA-bearing mice treated with CpG-Ythdf2 siRNA or CpG-scrambled siRNA (n=3 per group). […] Median fluorescence intensity (MFI) is shown. Data are shown as mean±SD and were analyzed with an unpaired two-tailed t-test (FIGS. 15F-15I) or one-way ANOVA with the Holm-Šídík post-test (FIGS. 15J-15K) or two-way ANOVA with the mixed-effects model and adjusted by Holm-Šídík post-test (FIG. 15L). […]
as §1

Ythdf2 mRNA = assay: qPCR of Ythdf2 mRNA in sorted TAMs of treated B16-OVA-bearing mice; assay type: in vivo, mouse; conditions: vs CpG-scrambled siRNA group
Protocol: FIGS. 15A-15P: TLR9 expression and CpG-Ythdf2 siRNA design as well as its uptake by macrophages associated with anti-tumor effect in vivo. FIG. 15A: Violin plot showing the Tlr9 expression across 15 cell clusters from scRNA-seq data in this study. FIG. 15B: Sequence of the CpG-linked mouse Ythdf2 siRNA conjugate (CpG-Ythdf2 siRNA). FIGS. 15C-15D: BMDMs were incubated with different doses of Cy3-labeled CpG-Ythdf2 siRNA (FIG. 15C) or with 100 nM Cy3-labeled CpG-Ythdf2 siRNA for the indicated times (FIG. 15D). CpG-Ythdf2 siRNA uptake was examined by flow cytometry. Data shown are representative histograms. FIG. 15E: Cy3-labeled CpG-Ythdf2 siRNA or CpG only was injected into B16-OVA tumors of C57BL/6 mice. […] Median fluorescence intensity (MFI) is shown. Data are shown as mean±SD and were analyzed with an unpaired two-tailed t-test (FIGS. 15F-15I) or one-way ANOVA with the Holm-Šídík post-test (FIGS. 15J-15K) or two-way ANOVA with the mixed-effects model and adjusted by Holm-Šídík post-test (FIG. 15L). […]
Quantitative real-time RT-PCR (qPCR). RNA was isolated using an RNeasy Mini Kit (QIAGEN) and then reverse transcribed to cDNA with PrimeScript RT Reagent Kit with gDNA Eraser (Takara Bio) following the manufacturer's instructions. mRNA expression levels were analyzed using SYBR Green PCR Master Mix and a QuantStudio 12K Flex Real-Time PCR System (both from Thermo Fisher Scientific).

[1] = 5 mg/kg intratumorally every other day, vs CpG-scrambled siRNA
[2] = intra-tumoral, vs CpG-scrambled siRNA
[3] = vs CpG-Ythdf2 siRNA alone or anti-PD-L1 mAb alone

| Molecule | macrophage migration induced by WT vs Ythdf2-KO tumor supernatant (CX3CR1) | difference of tumor growth between WT and Ythdf2-KO tumor (B16-OVA cells) | tumor growth (B16-OVA; [1]) | tumor growth in Batf3 KO mice (B16-OVA; Batf3 KO mice lacking cDC1 cells, vs CpG-scrambled siRNA) | proportion of M1 TAMs (B16-OVA; [2]) | proportion of M2 TAMs (B16-OVA; [2]) | CD8+ cytotoxic T cell responses, combination with anti-PD-L1 antibody (B16-OVA; [3]) | tumor growth, combination with anti-PD-L1 antibody (B16-OVA; [3]) | percentage of IFN-γ-producing CD8+ T cells (B16-OVA; vs CpG-scrambled siRNA group) | tumor growth (MC38; [1]) | percentage of IFN-γ-producing CD8+ T cells (MC38; vs CpG-scrambled siRNA group) | tumor metastasis (lung metastatic nodules) (B16F10; intravenous injection, vs CpG-scrambled siRNA) | percentage of IFN-γ-producing CD8+ T cells (B16F10; lung, vs CpG-scrambled siRNA group) | mRNA levels of Ythdf2 in sorted TAMs (Ythdf2 mRNA) |
| --- | --- | --- | --- | --- | --- | --- | --- | --- | --- | --- | --- | --- | --- | --- |
| CC(C)C[C@H](CO)Nc1nc(S[C@@H](C)c2ccccc2)nc2nc(N)sc12 [AZD8797] | differences in macrophage migration between WT and Ythdf2 KO groups disappeared | abolished the difference of tumor growth |  |  |  |  |  |  |  |  |  |  |  |  |
| B1 |  |  | significantly inhibited tumor growth | still inhibited tumor growth | significantly up-regulated | down-regulated | increased | reduced tumor growth | significantly higher | significantly inhibited tumor growth | significantly higher | inhibited tumor metastasis | significantly higher | significantly lower |
